The values that follow come from IntAct's records for PubMed 18068675.

B1: Neurovirulence factor ICP34.5 (Human herpesvirus 1 (strain 17) (HHV-1)), P36313 (parent)
chain: MARRRRHRGPRRPRPPGPTGAVPTAQSQVTSTPNSEPAVRSAPAAAPPPPPAGGPPPSCSLLLRQWLHVPESASDDDDDDDWPDSPPPEPAPEARPTAAAPRPRPPPPGVGPGGGADPSHPPSRPFRLPPRLALRLRVTAEHLARLRLRRAGGEGAPEPPATPATPATPATPATPARVRFSPHVRVRHLVVWASAARLARRGSWARERADRARFRRRVAEAEAVIGPCLGPEARARALARGAGPANSV

Variants of B1 are the subject of the first experiment. The following applies: with pp1a_human PPP1CA.
For the variant V178E;F180L, the “effect of a mutation on the interaction” value was “decreasing interaction”.

Variants of B1 are the subject of a further experiment. The following applies: with pp1a_human PPP1CA. This is another data set of the same source.
Regarding V178E;F180L, the “effect of a mutation on the interaction” value is “disrupting interaction”.

Another experiment covers variants of B1. The conditions noted are these: with pp1a_human PPP1CA. The source holds these as a separate data set.
Consider R236D, for which the “effect of a mutation on the interaction” value is “decreasing interaction”.

A further experiment covers variants of B1. The following applies: with pp1a_human PPP1CA. This is another data set of the same source.
Consider R234E, for which the “effect of a mutation on the interaction” value is on record as “decreasing interaction”.
